This note sets out measurements from paper PMC12145829, “The maternal vGluT2 and embryonic mGluR3 signaling relay system controls offspring wing dimorphism in pea aphid”.

The target of data set [1] is T1, MBP-ApFoxO DBD (Acyrthosiphon pisum, UniProt A0A8R1VZ87 89-178). Description: EMSA; 0.5 and 5 ug protein; EMSA: room temperature, 30 min; 6% native PAGE in 0.5x TBE, 60 V, 4 C; binding buffer, salt and pH not stated. The note with it: protein: recombinant; tags: N-terminal MBP (pMAL-c2x); label: 5' biotin. Background: Mobility shift assays separate free from complexed probe on a gel.

In data set [2] the target is T1, MBP-ApFoxO DBD. Description: EMSA; 0.5 ug protein, 5x labeled mutant probe; EMSA: room temperature, 30 min; 6% native PAGE in 0.5x TBE, 60 V, 4 C; binding buffer, salt and pH not stated. As to conditions: protein: recombinant; tags: N-terminal MBP (pMAL-c2x); label: 5' biotin.
Data set [3] deals with T1, MBP-ApFoxO DBD. Description: EMSA; 0.5 and 5 ug protein; concentration-dependent shift; EMSA: room temperature, 30 min; 6% native PAGE in 0.5x TBE, 60 V, 4 C; binding buffer, salt and pH not stated. The note with it: protein: recombinant; tags: N-terminal MBP (pMAL-c2x); label: 5' biotin.
Data set [4] deals with T1, MBP-ApFoxO DBD. Nature of the data set: competition; 5x and 25x unlabeled probe vs labeled FRE2; shift greatly reduced; EMSA: room temperature, 30 min; 6% native PAGE in 0.5x TBE, 60 V, 4 C; binding buffer, salt and pH not stated. The note with it: protein: recombinant; tags: N-terminal MBP (pMAL-c2x).

T1 sequence (A0A8R1VZ87 entry or part of it): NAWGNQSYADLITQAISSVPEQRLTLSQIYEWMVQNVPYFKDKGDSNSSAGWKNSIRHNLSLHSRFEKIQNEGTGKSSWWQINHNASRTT

B1: ApHh promoter FRE1 probe (dsDNA)
DNA 1: TTGACTGTAGTATGTAAACATTTCTGAACTCCA
DNA 2: TGGAGTTCAGAAATGTTTACATACTACAGTCAA
Regarding B1, in the data set with MBP-ApFoxO DBD [1], the binding result is “no binding”.

B2: FRE2 mutant (FRE_m) (dsDNA)
DNA 1: GATATAGTTTACACACCCGTATGACGGCAGAGA
DNA 2: TCTCTGCCGTCATACGGGTGTGTAAACTATATC
For B2, the binding result in the data set with MBP-ApFoxO DBD [2] is recorded as “no binding”.

B3: ApHh promoter FRE2 probe (dsDNA)
DNA 1: GATATAGTTTACATGTTTACATGACGGCAGAGA
DNA 2: TCTCTGCCGTCATGTAAACATGTAAACTATATC
Regarding B3, the binding result with MBP-ApFoxO DBD [3] is reported as “binds”.

B4: FRE2 unlabeled competitor (dsDNA)
DNA 1: B3 DNA 1
DNA 2: B3 DNA 2
Consider B4, for which, in the data set with MBP-ApFoxO DBD [4], the binding result is “binds”.
